These results are taken from patent US20150051149A1 (published 2015).

For the experiment, the target named is T1, human PXR-GST (Invitrogen) (human, UniProt O75469 111-434, limits assumed).
T1 construct: Captured on an anti-GST antibody chip; also called GST-PXR; GST-tagged PXR; not shown: GST tag
T1 sequence (looked up): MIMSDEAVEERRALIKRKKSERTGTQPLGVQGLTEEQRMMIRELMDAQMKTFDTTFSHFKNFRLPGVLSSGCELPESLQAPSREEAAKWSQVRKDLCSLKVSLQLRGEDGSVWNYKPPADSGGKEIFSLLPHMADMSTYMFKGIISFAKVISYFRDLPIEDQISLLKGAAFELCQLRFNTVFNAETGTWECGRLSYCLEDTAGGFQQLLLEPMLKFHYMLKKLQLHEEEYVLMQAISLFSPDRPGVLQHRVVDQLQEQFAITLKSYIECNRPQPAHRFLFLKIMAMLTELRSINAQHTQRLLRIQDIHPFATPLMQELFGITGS
Briefly: SPR, Biacore T100, human PXR-GST captured on anti-GST antibody. In general terms: In SPR one partner is held on a chip, and binding of the other changes the refractive index at the surface.

B1: Adnectin-3 (designed binder)
chain: MASTSGVSDVPRDLEVVAATPTSLLISWDAPAVPVSKYVIYYWPGALISSMQAFKVPGSKSTATISGLKPGVLYSIVVDALTGDGQGSYVWDPITITYRTEGSGSHHHHHH
B1: the association rate constant (kon) came out at 16200 M⁻¹ s⁻¹.

B2: Adnectin-2 (designed binder)
chain: MASTSGVSDVPRDLEVVAATPTSLLISWDAPAVTVNNYRITYQPLLQGSSIQHFDVPGSKSTATISGLKPGVGYQITVYASTYTHSKAYYSLPISIYYRTEGSGSHHHHHH
In turn, B2 came in with a kon of 162000 M⁻¹ s⁻¹.

The kon is a measure of how fast the partners come together. Low values mean slow association, high ones fast association.
